# Measured values from the RNAGym collection of RNA variant scans (doi:10.7554/elife.80360).
# B1: Hairpin Ribozyme (parent)
# chain: GUCCUCUUUCACGUGCGCGUGAAAGAGAGAAGUGAACCAGAGAAACACACGUUGUGGUAUAUUACCUGGUA
# Variants of: B1
# Experiment: self-cleavage, relative activity (ratio to wild type); higher = more cleavage; co-transcriptional
row,Variant,self-cleavage
1,GUCCUCUUUCACGUGCGCGUGAAAGAGAAAAGUUAACCAGAGAAACACACGUUGUGGUAUAUUACCUGGUA [G29A G34U],0.131
2,GUCCUCUUUCACGUGCGCGUGAAAGAGAAAAGUGAACCACAGAAACACACGUUGUGGUAUAUUACCUGGUA [G29A G40C],0.0971
3,GUCCUCUUUCACGUGCGCGUGAAAGAGAAAAGUGAACCAGAGAAACACACCUUGUGGUAUAUUACCUGGUA [G29A G51C],0.216
4,GUCCUCUUUCACGUGCGCGUGAAAGAGAAAAGUGAACCAGAGAAACACACGUUCUGGUAUAUUACCUGGUA [G29A G54C],0.0856
5,GUCCUCUUUCACGUGCGCGUGAAAGAGAAAAGUGAACCAGAGAAACACACGUUUUGGUAUAUUACCUGGUA [G29A G54U],0.214
6,GUCCUCUUUCACGUGCGCGUGAAAGAGAAAAGUGAACCAGAGAAACACACGUUGUCGUAUAUUACCUGGUA [G29A G56C],0.166
7,GUCCUCUUUCACGUGCGCGUGAAAGAGAAAAGUGAACCAGAGAAACACACGUUGUGAUAUAUUACCUGGUA [G29A G57A],0.141
8,GUCCUCUUUCACGUGCGCGUGAAAGAGAAAAGUGAACCAGAGAAACACACGUUGUGUUAUAUUACCUGGUA [G29A G57U],0.0366
9,GUCCUCUUUCACGUGCGCGUGAAAGAGAAAAGGGAACCAGAGAAACACACGUUGUGGUAUAUUACCUGGUA [G29A U33G],0.167
10,GUCCUCUUUCACGUGCGCGUGAAAGAGAAAAGUGAACCAGAGAAACACACGUUGCGGUAUAUUACCUGGUA [G29A U55C],0.163
11,GUCCUCUUUCACGUGCGCGUGAAAGAGAAAAGUGAACCAGAGAAACACACGUUGUGGUAUAAUACCUGGUA [G29A U62A],0.123
12,GUCCUCUUUCACGUGCGCGUGAAAGAGAAAAGUGAACCAGAGAAACACACGUUGUGGUAUAUUACCUGGAA [G29A U70A],0.0755
13,GUCCUCUUUCACGUGCGCGUGAAAGAGAAAAGUGAACCAGAGAAACACACGUUGUGGUAUAUUACCUGGCA [G29A U70C],0.171
14,GUCCUCUUUCACGUGCGCGUGAAAGAGAAAAGUGAACCAGAGAAACACACGUUGUGGUAUAUUACCUGGGA [G29A U70G],0.182
15,GUCCUCUUUCACGUGCGCGUGAAAGAGACCAGUGAACCAGAGAAACACACGUUGUGGUAUAUUACCUGGUA [G29C A30C],0.0921
16,GUCCUCUUUCACGUGCGCGUGAAAGAGACACGUGAACCAGAGAAACACACGUUGUGGUAUAUUACCUGGUA [G29C A31C],0.17
17,GUCCUCUUUCACGUGCGCGUGAAAGAGACAAGUGCACCAGAGAAACACACGUUGUGGUAUAUUACCUGGUA [G29C A35C],0.104
18,GUCCUCUUUCACGUGCGCGUGAAAGAGACAAGUGUACCAGAGAAACACACGUUGUGGUAUAUUACCUGGUA [G29C A35U],0.0473
19,GUCCUCUUUCACGUGCGCGUGAAAGAGACAAGUGAACCCGAGAAACACACGUUGUGGUAUAUUACCUGGUA [G29C A39C],0.106
20,GUCCUCUUUCACGUGCGCGUGAAAGAGACAAGUGAACCGGAGAAACACACGUUGUGGUAUAUUACCUGGUA [G29C A39G],0.0911
21,GUCCUCUUUCACGUGCGCGUGAAAGAGACAAGUGAACCAGCGAAACACACGUUGUGGUAUAUUACCUGGUA [G29C A41C],0.0573
22,GUCCUCUUUCACGUGCGCGUGAAAGAGACAAGUGAACCAGGGAAACACACGUUGUGGUAUAUUACCUGGUA [G29C A41G],0.142
23,GUCCUCUUUCACGUGCGCGUGAAAGAGACAAGUGAACCAGAGCAACACACGUUGUGGUAUAUUACCUGGUA [G29C A43C],0.125
24,GUCCUCUUUCACGUGCGCGUGAAAGAGACAAGUGAACCAGAGAGACACACGUUGUGGUAUAUUACCUGGUA [G29C A44G],0.243
25,GUCCUCUUUCACGUGCGCGUGAAAGAGACAAGUGAACCAGAGAAACACCCGUUGUGGUAUAUUACCUGGUA [G29C A49C],0.159
26,GUCCUCUUUCACGUGCGCGUGAAAGAGACAAGUGAACCAGAGAAACACACGUUGUGGUUUAUUACCUGGUA [G29C A59U],0.207

row,Variant,self-cleavage
1,GUCCUCUUUCACGUGCGCGUGAAAGAGACAAGUGAACCAGAGAAACACACGUUGUGGUAUCUUACCUGGUA [G29C A61C],0.206
2,GUCCUCUUUCACGUGCGCGUGAAAGAGACAAGUGAACCAGAGAAACACACGUUGUGGUAUAUUACCUGGUC [G29C A71C],0.179
3,GUCCUCUUUCACGUGCGCGUGAAAGAGACAAGUGAACCAGAGAAACACACGUUGUGGUAUAUUACCUGGUG [G29C A71G],0.206
4,GUCCUCUUUCACGUGCGCGUGAAAGAGACAAGUGAACAAGAGAAACACACGUUGUGGUAUAUUACCUGGUA [G29C C38A],0.174
5,GUCCUCUUUCACGUGCGCGUGAAAGAGACAAGUGAACCAGAGAAAGACACGUUGUGGUAUAUUACCUGGUA [G29C C46G],0.0799
6,GUCCUCUUUCACGUGCGCGUGAAAGAGACAAGUGAACCAGAGAAACAUACGUUGUGGUAUAUUACCUGGUA [G29C C48U],0.203
7,GUCCUCUUUCACGUGCGCGUGAAAGAGACAAGUGAACCAGAGAAACACAAGUUGUGGUAUAUUACCUGGUA [G29C C50A],0.167
8,GUCCUCUUUCACGUGCGCGUGAAAGAGACAAAUGAACCAGAGAAACACACGUUGUGGUAUAUUACCUGGUA [G29C G32A],0.167
9,GUCCUCUUUCACGUGCGCGUGAAAGAGACAACUGAACCAGAGAAACACACGUUGUGGUAUAUUACCUGGUA [G29C G32C],0.128
10,GUCCUCUUUCACGUGCGCGUGAAAGAGACAAUUGAACCAGAGAAACACACGUUGUGGUAUAUUACCUGGUA [G29C G32U],0.121
11,GUCCUCUUUCACGUGCGCGUGAAAGAGACAAGUAAACCAGAGAAACACACGUUGUGGUAUAUUACCUGGUA [G29C G34A],0.158
12,GUCCUCUUUCACGUGCGCGUGAAAGAGACAAGUUAACCAGAGAAACACACGUUGUGGUAUAUUACCUGGUA [G29C G34U],0.0954
13,GUCCUCUUUCACGUGCGCGUGAAAGAGACAAGUGAACCAAAGAAACACACGUUGUGGUAUAUUACCUGGUA [G29C G40A],0.115
14,GUCCUCUUUCACGUGCGCGUGAAAGAGACAAGUGAACCACAGAAACACACGUUGUGGUAUAUUACCUGGUA [G29C G40C],0.133
15,GUCCUCUUUCACGUGCGCGUGAAAGAGACAAGUGAACCAGAAAAACACACGUUGUGGUAUAUUACCUGGUA [G29C G42A],0.13
16,GUCCUCUUUCACGUGCGCGUGAAAGAGACAAGUGAACCAGAUAAACACACGUUGUGGUAUAUUACCUGGUA [G29C G42U],0.11
17,GUCCUCUUUCACGUGCGCGUGAAAGAGACAAGUGAACCAGAGAAACACACUUUGUGGUAUAUUACCUGGUA [G29C G51U],0.141
18,GUCCUCUUUCACGUGCGCGUGAAAGAGACAAGUGAACCAGAGAAACACACGUUGUGAUAUAUUACCUGGUA [G29C G57A],0.215
19,GUCCUCUUUCACGUGCGCGUGAAAGAGACAAGUGAACCAGAGAAACACACGUUGUGUUAUAUUACCUGGUA [G29C G57U],0.142
20,GUCCUCUUUCACGUGCGCGUGAAAGAGACAAGUGAACCAGAGAAACACACGUUGUGGUAUAUUACCUAGUA [G29C G68A],0.0962
21,GUCCUCUUUCACGUGCGCGUGAAAGAGACAAGUGAACCAGAGAAACACACGUUGUGGUAUAUUACCUGAUA [G29C G69A],0.0986
22,GUCCUCUUUCACGUGCGCGUGAAAGAGACAAGUGAACCAGAGAAACACACGUUGUGGUAUAUUACCUGUUA [G29C G69U],0.119
23,GUCCUCUUUCACGUGCGCGUGAAAGAGACAAGUGAACCAGAGAAACACACGCUGUGGUAUAUUACCUGGUA [G29C U52C],0.163
24,GUCCUCUUUCACGUGCGCGUGAAAGAGACAAGUGAACCAGAGAAACACACGUUGCGGUAUAUUACCUGGUA [G29C U55C],0.127
25,GUCCUCUUUCACGUGCGCGUGAAAGAGACAAGUGAACCAGAGAAACACACGUUGUGGAAUAUUACCUGGUA [G29C U58A],0.213
26,GUCCUCUUUCACGUGCGCGUGAAAGAGACAAGUGAACCAGAGAAACACACGUUGUGGGAUAUUACCUGGUA [G29C U58G],0.077

row,Variant,self-cleavage
1,GUCCUCUUUCACGUGCGCGUGAAAGAGACAAGUGAACCAGAGAAACACACGUUGUGGUAGAUUACCUGGUA [G29C U60G],0.201
2,GUCCUCUUUCACGUGCGCGUGAAAGAGACAAGUGAACCAGAGAAACACACGUUGUGGUAUAUCACCUGGUA [G29C U63C],0.094
3,GUCCUCUUUCACGUGCGCGUGAAAGAGACAAGUGAACCAGAGAAACACACGUUGUGGUAUAUUACCCGGUA [G29C U67C],0.0789
4,GUCCUCUUUCACGUGCGCGUGAAAGAGAUGAGUGAACCAGAGAAACACACGUUGUGGUAUAUUACCUGGUA [G29U A30G],0.189
5,GUCCUCUUUCACGUGCGCGUGAAAGAGAUUAGUGAACCAGAGAAACACACGUUGUGGUAUAUUACCUGGUA [G29U A30U],0.176
6,GUCCUCUUUCACGUGCGCGUGAAAGAGAUAAGUGUACCAGAGAAACACACGUUGUGGUAUAUUACCUGGUA [G29U A35U],0.117
7,GUCCUCUUUCACGUGCGCGUGAAAGAGAUAAGUGAACCCGAGAAACACACGUUGUGGUAUAUUACCUGGUA [G29U A39C],0.174
8,GUCCUCUUUCACGUGCGCGUGAAAGAGAUAAGUGAACCAGAGUAACACACGUUGUGGUAUAUUACCUGGUA [G29U A43U],0.215
9,GUCCUCUUUCACGUGCGCGUGAAAGAGAUAAGUGAACCAGAGAACCACACGUUGUGGUAUAUUACCUGGUA [G29U A45C],0.0757
10,GUCCUCUUUCACGUGCGCGUGAAAGAGAUAAGUGAACCAGAGAAUCACACGUUGUGGUAUAUUACCUGGUA [G29U A45U],0.101
11,GUCCUCUUUCACGUGCGCGUGAAAGAGAUAAGUGAACCAGAGAAACCCACGUUGUGGUAUAUUACCUGGUA [G29U A47C],0.0936
12,GUCCUCUUUCACGUGCGCGUGAAAGAGAUAAGUGAACCAGAGAAACUCACGUUGUGGUAUAUUACCUGGUA [G29U A47U],0.169
13,GUCCUCUUUCACGUGCGCGUGAAAGAGAUAAGUGAACCAGAGAAACACUCGUUGUGGUAUAUUACCUGGUA [G29U A49U],0.0858
14,GUCCUCUUUCACGUGCGCGUGAAAGAGAUAAGUGAACCAGAGAAACACACGUUGUGGUAUUUUACCUGGUA [G29U A61U],0.0881
15,GUCCUCUUUCACGUGCGCGUGAAAGAGAUAAGUGAACCAGAGAAACACACGUUGUGGUAUAUUUCCUGGUA [G29U A64U],0.14
16,GUCCUCUUUCACGUGCGCGUGAAAGAGAUAAGUGAACCAGAGAAACACACGUUGUGGUAUAUUACCUGGUG [G29U A71G],0.171
17,GUCCUCUUUCACGUGCGCGUGAAAGAGAUAAGUGAACCAGAGAAACACACGUUGUGGUAUAUUACCUGGUU [G29U A71U],0.185
18,GUCCUCUUUCACGUGCGCGUGAAAGAGAUAAGUGAAACAGAGAAACACACGUUGUGGUAUAUUACCUGGUA [G29U C37A],0.163
19,GUCCUCUUUCACGUGCGCGUGAAAGAGAUAAGUGAACAAGAGAAACACACGUUGUGGUAUAUUACCUGGUA [G29U C38A],0.179
20,GUCCUCUUUCACGUGCGCGUGAAAGAGAUAAGUGAACGAGAGAAACACACGUUGUGGUAUAUUACCUGGUA [G29U C38G],0.186
21,GUCCUCUUUCACGUGCGCGUGAAAGAGAUAAGUGAACCAGAGAAAGACACGUUGUGGUAUAUUACCUGGUA [G29U C46G],0.182
22,GUCCUCUUUCACGUGCGCGUGAAAGAGAUAAGUGAACCAGAGAAACAGACGUUGUGGUAUAUUACCUGGUA [G29U C48G],0.096
23,GUCCUCUUUCACGUGCGCGUGAAAGAGAUAAGUGAACCAGAGAAACACACGUUGUGGUAUAUUAACUGGUA [G29U C65A],0.139
24,GUCCUCUUUCACGUGCGCGUGAAAGAGAUAAGUGAACCAGAGAAACACACGUUGUGGUAUAUUACUUGGUA [G29U C66U],0.106
